Assay results taken from PMC11220700, “Activation and Purification of ß‐Glucocerebrosidase by Exploiting its Transporter LIMP‐2 – Implications for Novel Treatment Strategies in Gaucher's and Parkinson's Disease” (Advanced Science, 2024).

System: wt GCase in HEK 293F supernatant
Assay: GCase activity in supernatant of HEK 293F cells co‐expressing soluble LIMP‐2
Format: cell-based, human
Details: co‐expression with wt GCase, 0‐72 h after transfection, n = 3
Method: HEK 293F cells (ThermoFisher Scientific Inc., Waltham, MA, United States, #R79007) were cultivated in FreeStyle 293 expression medium (ThermoFisher Scientific Inc., Waltham, MA, United States, #12 338 018) in vented flat‐bottom Erlenmeyer flasks (ThermoFisher Scientific Inc., Waltham, MA, United States, #4115‐0125, #4115‐0250, #4115‐0500, #4115‐1000, #4115‐2000) on a MaxQ CO2 Plus orbital shaker (ThermoFisher Scientific Inc., Waltham, MA, United States, #88 881 102) at 125 rpm, 37 °C and 8% CO2. Regularly, the cell count was determined using a Cellometer Auto T4 Plus cell counter (Nexcelom Biocience LLC, Lawrence, Massachusetts, United States). […] For seeding, cells were counted and the desired cell number was transferred to 50 mL tubes. […]
Activity of GCase‐containing samples (recombinant protein, cell lysate, LE fractions, conditioned culture medium) was measured using the synthetic substrate 4‐methylumbelliferyl‐β‐D‐glucopyranoside (4MU, Merck Millipore, Billerica, MA, United States, #M3633). […] GCase activity was quantified via fluorescence of released 4‐methylumbelliferone (endpoint measurement) using an Infinite 200 Pro (TECAN, Männedorf, Switzerland), SpectraMax Gemini (Molecular Devices, San José, CA, United States) or ClarioStar (BMG LABTECH, Ortenberg, Germany) multiplate reader (λ ex: 365 nm; λ em: 445 nm). […]

B1: sLIMP‐2: secreted LIMP‐2 ectodomain, amino acids 36–431, N‐terminal IgK leader sequence, C‐terminal TEV‐cleavable 10xHis tag (protein)
chain: SIEKKIVLRNGTEAFDSWEKPPLPVYTQFYFFNVTNPEEILRGETPRVEEVGPYTYRELRNKANIQFGDNGTTISAVSNKAYVFERDQSVGDPKIDLIRTLNIPVLTVIEWSQVHFLREIIEAMLKAYQQKLFVTHTVDELLWGYKDEILSLIHVFRPDISPYFGLFYEKNGTNDGDYVFLTGEDSYLNFTKIVEWNGKTSLDWWITDKCNMINGTDGDSFHPLITKDEVLYVFPSDFCRSVYITFSDYESVQGLPAFRYKVPAEILANTSDNAGFCIPEGNCLGSGVLNVSICKNGAPIIMSFPHFYQADERFVSAIEGMHPNQEDHETFVDINPLTGIILKAAKRFQINIYVKKLDDFVETGDIRTMVFPVMYLNESVHIDKETASRLKSMINT
modifications: left off: Igκ leader sequence, N-terminal, state not stated | 10xHis (TEV-cleavable), C-terminal, kept
GCase activity in supernatant over time: GCase activity is higher and stable over the course of the measurements
